# No end group written: not given here.
# What was measured:
# [1] = system: cells infected by targeted phage vectors; assay: Enhancement of phage transduction by genotoxic agents or genetic trans-complementation; type: cell-based; conditions: genotoxic drug 10 μM added 36 hours after infection, analysis at 72 hours post-infection
# Procedure: Semi-confluent cells were infected with 10^5 TU of phage per cell for 4 hours in serum free media, after which fresh medium supplemented with FCS was added (no phage were washed out or removed). In some experiments, a phage admixture of forward and reverse clones at 10^10 TU (forward/reverse molar ratio=1) was tested. Next, cells were incubated for 36 hours followed by the addition of genotoxic drugs (topotecan, 10 μM; cisplatin, 10 μM) or administration of UV radiation (15 J/m^2) with a cross-linker apparatus (UV Stratalinker Model 2400; Stratagene). At 72 hours post-infection, the cells were analyzed for transduction of a reporter gene (β-gal or GFP), and gene expression was normalized per cell number relative to controls.
# [2] = target: T1, rhAngiostatin (Homo sapiens, UniProt P00747); assay: Panning of CX7C phage library on rhAngiostatin (clone frequency); type: binding; conditions: clones sequenced after panning on rhAngiostatin
# T1 construct: rh-Angiostatin and rh-Endostatin were produced by EntreMed, Inc; purchased EntreMed, Inc. (Rockville, Md.)
# Procedure: (§1) A phage library displaying random cyclic peptides with the structure CX7C (C, cysteine; X, any residue) was prepared. An aliquot of the library containing 3×10^10 transducing units (TU) was screened with rhAngiostatin protein coated on microtiter wells as described (Koivunen et al 1993). In the first and second panning the amount of protein used was 10 μg/well. To increase the stringency of panning, the wells were coated with a decreased concentration of rhAngiostatin protein (100 ng/well) in the third panning. Phage remained bound after extensive washing. Bound phage were recovered by infection into F-pilus positive K91 bacteria. To determine the specificity of rhAngiostatin binding, selected phage were assayed as described but using rh-Endostatin and BSA proteins to coat the wells. In all assays, insertless phage (fdtet) was used as a control.
# (§2) Phage were sequenced from randomly selected clones after three rounds of panning (Koivunen et al., 1994, 1995; Pasqualini et al., 1995). A number of distinct angiostatin-targeting sequences were identified (Table 10). Randomly selected clones from rounds II and III were sequenced. Amino acid sequences of the phagemid encoded peptides were deduced from nucleotide sequences. A consensus sequence appeared on the third round in 61% of the sequences examined (26 out of 42)—CWSLEXXKC (SEQ D NO: 141). Including the closely related sequence CWSAEWTKC (SEQ ID NO: 142) the consensus motif accounted for 71% of Angiostatin binding peptides. The ratios in the last two columns of Table 10 were calculated by dividing the number of colonies recovered from rhAngiostatin-coated wells by those recovered from rh-Endostatin or BSA wells.
# [3] = system: antibodies present in the serum; assay: ELISA of sera on immobilized GST-fusion peptides; type: binding, human; conditions: for reactivity of serum against peptide in presence of the corresponding synthetic peptide: data not shown; for ELISA reactivity of patient serum with GST-fusion peptide: serum of the patients selected for the screenings, GST alone as negative control
# Procedure: A 20 μg/ml solution of purified GST or GST-fusion proteins in 0.1M NaHCO3 was used to coat maxisorp multi-well plates (Nalge Nunc International Corporation) and incubated overnight at 4° C. The plates were blocked in a blocking buffer (4% milk, 2% casein, and 0.05% Tween-20) for 3-4 hours. A series of […] (1:100-1:1200) of sera from prostate cancer patients or healthy individuals was added and incubated for 1.5 hours and then washed five times with washing buffer (1% milk, 0.5% casein, and 0.025% Tween-20), followed by incubation at 4° C. with anti-human allaline phosphatase-conjugated antibodies (Gibco). The plates were then washed six times in washing buffer and developed using p-NPP (Sigma) as a substrate. An automatic ELISA plate reader (BIO-TEK instrument) recorded the results at OD405 nm.
# Probabilities of survival for each group were estimated using the Kaplan-Meier method. A log-rank test was implemented in order to detect significant differences between the groups. Reactivity was considered to be detected if the ratio between GST-peptide and GST alone was greater or equal to two by the ELISA data. The Cox proportional hazards model was applied to analyze the effect of single and multiple risk factors in association with survival. Martingale residual plots were used to assess the proportional hazard assumption. P-values less than 0.05 were considered significant. All analyses were performed using SPLUS statistical software.
# ELISA was performed to assess if the peptides could be specifically recognized by the antibodies present in the serum of the patients selected for the screenings. Peptides A (CHQKPWEC, SEQ ID NO: 58), B (CKDRFERC, SEQ ID NO: 59), and C (CNVSDKSC, SEQ ID NO: 60) were produced as GST-fusion proteins and immobilized onto microtiter wells, along with GST alone as a negative control. For each sample tested, a series of 100-fold dilutions was performed. […] The reactivity of each serum against peptides A, B and C was inhibited by the corresponding synthetic peptides (data not shown).
# The reactivity profile of 91 sera obtained from clinically annotated prostate cancer patients was examined. Sera from 34 healthy individuals were also tested as a control for specificity. ELISA was performed to evaluate each serum using the three selected peptides (A, B, and C). The sera obtained from patients with prostate cancer were divided into three groups: 35 originated from patients with localized adenocarcinomas, 27 from patients with metastatic androgen-dependent disease, and 29 originated from patients with metastatic androgen-independent disease.
# [4] = system: IgG from the ovarian cancer patient; assay: Binding of phage to IgGs isolated from ovarian cancer patient ascites or serum; design: species or system human
# Text: FIG. 22. Binding of phage containing the CVPELGHEC (SEQ ID NO: 271) and CFELGFELGC (SEQ ID NO: 272) targeting peptides to IgG's isolated from ovarian cancer patient #2 ascites, normal serum and BSA.
# FIG. 23. Binding of phage containing the CVPELGHEC (SEQ ID NO: 271) targeting peptide to IgG's isolated from normal serum or from ascites of ovarian cancer patient #1 or #2. Control fd-tet phage contained no insert DNA.
# FIG. 24. Binding of phage containing the CVPELGHEC (SEQ ID NO: 271) targeting peptide to IgG's isolated from serum of ovarian cancer patient #2, normal serum or BSA.
# To select peptides specific to the ascitic fluid of ovarian cancer patients, IgGs from normal donor serum and ovarian cancer cell free ascitic fluid were bound to Protein agarose (Pierce) in the Pierce acetate, pH5 binding buffer. A two step biopanning procedure was employed in which the first step involved pre-clearing the phage peptide library by incubating it with IgGs isolated from normal donor serum in order to remove common antigens. This was followed by a second step where the pre-cleared library was used to screen cancer specific IgGs. Approximately 10^8 transforming units were added to the IgGs for the panning procedure. The resultant IgG-bound phage were recovered by eluting the phage with 0.1M glycine buffer, pH2.2, neutralizing the phage with 0.1 volume 1 M Tris-Cl, pH 9, and using the phage to infect stationary phase Escherichia coli strain K91. Serial dilutions of phage infected-K91 were plated onto tetracycline (40 μg/ml) LB agar plates and grown overnight at 37° C. Individual clones were picked, amplified, and precipitated for subsequent rounds of panning. A total of three rounds of selection were performed. Phage clones from the second and third rounds were subject to PCR followed by sequence analysis to evaluate enrichment of the most consistently binding peptide sequences.
# [5] = target: CD13 (Aminopeptidase N); assay: competition against rhAngiostatin binding to coated CD13, 0.5 µg peptide; not shown
# [6] = target: T2, rhAngiostatin (human, UniProt P00747 98-357, limits assumed); assay: phage binding to coated wells; colonies from rhAngiostatin wells divided by those from BSA wells
# Procedure: as §1, with “CX₇C” for “CX7C”, “3×10¹⁰” for “3×10^10”
# as §2, with “CWSAEWTKC” left out
# [7] = target: T2, rhAngiostatin; assay: phage binding to coated wells; colonies from rhAngiostatin wells divided by those from rh-Endostatin wells
# Procedure: as §1, with “CX₇C” for “CX7C”, “3×10¹⁰” for “3×10^10”
# as §2, with “CWSAEWTKC” left out
# T1 sequence (P00747 79-466 limits assumed): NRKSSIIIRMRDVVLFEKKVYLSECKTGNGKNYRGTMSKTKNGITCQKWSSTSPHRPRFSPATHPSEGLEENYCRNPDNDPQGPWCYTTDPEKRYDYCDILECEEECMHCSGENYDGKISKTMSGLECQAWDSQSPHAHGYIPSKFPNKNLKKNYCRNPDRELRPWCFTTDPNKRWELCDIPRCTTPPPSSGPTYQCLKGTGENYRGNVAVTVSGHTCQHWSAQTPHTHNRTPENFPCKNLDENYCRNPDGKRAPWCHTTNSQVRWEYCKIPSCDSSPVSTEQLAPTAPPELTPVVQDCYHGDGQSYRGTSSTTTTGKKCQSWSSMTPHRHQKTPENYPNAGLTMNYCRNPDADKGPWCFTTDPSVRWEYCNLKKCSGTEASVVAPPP
# T2 sequence (P00747 98-357 limits assumed): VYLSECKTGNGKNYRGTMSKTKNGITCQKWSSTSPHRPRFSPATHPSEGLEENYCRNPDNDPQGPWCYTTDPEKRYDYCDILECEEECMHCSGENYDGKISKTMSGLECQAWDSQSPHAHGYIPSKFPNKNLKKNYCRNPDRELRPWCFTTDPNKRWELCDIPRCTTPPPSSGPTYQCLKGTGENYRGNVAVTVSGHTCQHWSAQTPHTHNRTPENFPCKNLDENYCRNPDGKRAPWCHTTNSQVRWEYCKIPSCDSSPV
# Sequence of CD13 (Aminopeptidase N) (P15145 2-963): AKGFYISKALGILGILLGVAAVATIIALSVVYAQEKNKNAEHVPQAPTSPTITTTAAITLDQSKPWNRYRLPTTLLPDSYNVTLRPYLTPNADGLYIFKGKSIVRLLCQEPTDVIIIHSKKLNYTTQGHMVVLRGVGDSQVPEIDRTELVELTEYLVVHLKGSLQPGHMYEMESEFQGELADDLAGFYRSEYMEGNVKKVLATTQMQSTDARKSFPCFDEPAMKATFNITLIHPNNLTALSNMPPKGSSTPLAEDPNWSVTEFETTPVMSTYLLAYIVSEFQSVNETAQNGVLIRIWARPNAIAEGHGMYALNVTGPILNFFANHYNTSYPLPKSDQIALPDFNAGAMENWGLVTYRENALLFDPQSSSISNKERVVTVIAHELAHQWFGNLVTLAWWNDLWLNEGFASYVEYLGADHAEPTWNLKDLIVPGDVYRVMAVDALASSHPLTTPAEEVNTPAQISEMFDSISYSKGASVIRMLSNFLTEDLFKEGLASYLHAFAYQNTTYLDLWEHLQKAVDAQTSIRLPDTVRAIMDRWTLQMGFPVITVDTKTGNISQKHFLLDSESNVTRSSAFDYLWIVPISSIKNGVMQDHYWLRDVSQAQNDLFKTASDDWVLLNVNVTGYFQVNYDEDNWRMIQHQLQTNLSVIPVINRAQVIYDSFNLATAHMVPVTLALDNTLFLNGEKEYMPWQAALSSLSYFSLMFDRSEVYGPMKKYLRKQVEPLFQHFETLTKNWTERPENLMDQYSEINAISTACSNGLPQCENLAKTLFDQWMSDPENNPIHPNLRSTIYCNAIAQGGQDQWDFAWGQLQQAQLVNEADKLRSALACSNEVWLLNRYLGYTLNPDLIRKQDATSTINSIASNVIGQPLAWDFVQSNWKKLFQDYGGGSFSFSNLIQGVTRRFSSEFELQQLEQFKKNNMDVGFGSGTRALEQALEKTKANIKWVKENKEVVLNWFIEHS
molecule,measurement,setting,value
N.N.[Cl][Pt][Cl] [cisplatin],gene transduction by targeted phage vectors relative to controls,[1],several fold higher
CC[C@@]1(O)C(=O)OCc2c1cc1n(c2=O)Cc2cc3c(CN(C)C)c(O)ccc3nc2-1 [topotecan],gene transduction by targeted phage vectors relative to controls,[1],several fold higher
CGGREFWLC,frequency,[2],1/42
CGVVSRVGC,frequency,[2],1/42
CHQKPWEC [peptide A],reactivity of serum against peptide in presence of the corresponding synthetic peptide,[3],inhibited
same,ELISA reactivity of patient serum with GST-fusion peptide,[3],strong reactivity
CKDRFERC [peptide B],reactivity of serum against peptide in presence of the corresponding synthetic peptide,[3],inhibited
same,ELISA reactivity of patient serum with GST-fusion peptide,[3],strong reactivity
CLAWVGGRC,frequency,[2],1/42
CNVSDKSC [peptide C],reactivity of serum against peptide in presence of the corresponding synthetic peptide,[3],inhibited
same,ELISA reactivity of patient serum with GST-fusion peptide,[3],strong reactivity
CQGKFSQRC,frequency,[2],1/42
CRVLADRDC,frequency,[2],1/42
CRWSSMIWC,frequency,[2],1/42
CSLQGIVGC,frequency,[2],1/42
CSRSVSRLC,frequency,[2],1/42
CVAADRYVC,frequency,[2],1/42
CVPELGHEC,phage binding to IgG from ovarian cancer patient #2 ascites versus IgG from a normal patient or BSA,[4]; FIG. 22,very high selectivity
same,phage binding to IgGs from patient #2 compared to patient #1 or normal individuals,[4]; FIG. 23,much higher affinity
same,phage binding to serum from patient #2 compared to BSA or normal serum,[4]; FIG. 24,similarly high selectivity
CWSAEWTKC,frequency,[2],4/42
CWSLEFTKC,frequency,[2],5/42
CWSLELLKC,frequency,[2],2/42
CWSLELSKC,frequency,[2],10/42
CWSLESLKC,frequency,[2],4/42
CWSLEVAKC,frequency,[2],5/42
CYGAWRVSC,frequency,[2],1/42
"NGR peptide (Burg et al., 1999)",percent inhibition of angiostatin binding to CD13,[5],> 50%
CWSLEVAKC (not fully specified (bridges); cysteine pairing not given here; also: displayed on phage) [phage displaying CWSLEVAKC],rh-Angio/BSA (ratio of colonies recovered),[6],1120 ratio
same,rh-Angio/rhEndo (ratio of colonies recovered),[7],486 ratio
CRWSSMIWC (not fully specified (bridges); cysteine pairing not given here; also: displayed on phage) [phage displaying CRWSSMIWC],rh-Angio/BSA (ratio of colonies recovered),[6],11 ratio
same,rh-Angio/rhEndo (ratio of colonies recovered),[7],7 ratio
CYGAWRVSC (not fully specified (bridges); cysteine pairing not given here; also: displayed on phage) [phage displaying CYGAWRVSC],rh-Angio/BSA (ratio of colonies recovered),[6],14 ratio
same,rh-Angio/rhEndo (ratio of colonies recovered),[7],6 ratio
CWSLELLKC (not fully specified (bridges); cysteine pairing not given here; also: displayed on phage) [phage displaying CWSLELLKC],rh-Angio/BSA (ratio of colonies recovered),[6],734 ratio
same,rh-Angio/rhEndo (ratio of colonies recovered),[7],489 ratio
CWSLELSKC (not fully specified (bridges); cysteine pairing not given here; also: displayed on phage) [phage displaying CWSLELSKC],rh-Angio/BSA (ratio of colonies recovered),[6],630 ratio
same,rh-Angio/rhEndo (ratio of colonies recovered),[7],630 ratio
CWSLEFTKC (not fully specified (bridges); cysteine pairing not given here; also: displayed on phage) [phage displaying CWSLEFTKC],rh-Angio/BSA (ratio of colonies recovered),[6],958 ratio
same,rh-Angio/rhEndo (ratio of colonies recovered),[7],958 ratio
CWSAEWTKC (not fully specified (bridges); cysteine pairing not given here; also: displayed on phage) [phage displaying CWSAEWTKC],rh-Angio/BSA (ratio of colonies recovered),[6],892 ratio
same,rh-Angio/rhEndo (ratio of colonies recovered),[7],124 ratio

# Reference: patent publication US20040048243A1, “Methods and compositions for in vitro targeting” (priority 2003, published 2004)
